Laboratory results published in the DeepSol protein solubility set.

Experiment: soluble on expression in E. coli; label from the status in PepcDB or PDB records
With “MGSSHHHHHHGKTIFVIVPTNEEQVAFLEALAKQDELNFDWQNPPTEPGQPVVILIPSDMVEWFLEMLKAKGIPFTVYVEEGGSENLYFQGGGGGGAASLGDFGQEYQAIMESAGKGFGMLYRDMTAPPASYQWECVEDLSLQYSVAYASLTEPYTVNVLTSMITVTRTESTPGVSYNLIGIACTYDGNCGDLKRGNLLTFSLRKDLIIIVTGSVLSNGITNFLPVSYYVVQLASSCSSANIANVTRPFSVGASSVWMQLWQ” the “soluble on expression in E. coli” value was “not soluble”. With “MGSSHHHHHHGKTIFVIVPTNEEQVAFLEALAKQDELNFDWQNPPTEPGQPVVILIPSDMVEWFLEMLKAKGIPFTVYVEEGGSENLYFQGGGGGGLASGSSSAEGGAKRFSRQQIIQHVKKSLLYTAFDVRWVPQTASFAVVGQYPNNHGALSVYQLHHGDVQPTVEVRLPHPLKCCTFGHNISFSSSGSGSGGNSSSITAANATMNQIATGDFAGSLQIFDLSRLGSTPPSAPNALSDVTAASVLHIPHAHESIINAIDGARYSGPPEVATGSRDGSVKVWDTRQSNKPVVSLNPADPARARDCWTVRLGNSFDPDERVVAAGYDNGDVKIFDLRTQKMLHEMHVNNGVCDLEFDRPDIPMNKLLVSSLEGRVRCYDMRTLHPKLGYAYVEERVSEGTVWCSRALPQNREIFLSGGGGELTLCLYKYPPERTLKDGDGLQRGVAGAVEELNKAKIGDQPINAMDWNRSKEGLAVCASFDQSIRVMLVTKLGLLS” the “soluble on expression in E. coli” value was “not soluble”. With “MGSSHHHHHHGMASMTGGQQMGRDLYDDDDKDPSSRSMAKLTKPKTEGILHKGQSLYEYLDARVLTSKPFGAAGDATTDDTEVIAASLNSQKAVTISDGVFSSSGINSNYCNLDGRGSGVLSHRSSTGNYLVFNNPRTGRLSNITVESNKATDTTQGQQVSLAGGSDVTVSDVNFSNVKGTGFSLIAYPNDAPPDGLMIKGIRGSYSGYATNKAAGCVLADSSVNSLIDNVIAKNYPQFGAVELKGTASYNIVSNVIGADCQHVTYNGTEGPIAPSNNLIKGVMANNPKYAAVVAGKGSTNLISDVLVDYSTSDARQAHGVTVEGSDNVINNVLMSGCDGTNSLGQRQTATIARFIGTANNNYASVFPSYSATGVITFESGSTRNFVEVKHPGRRNDLLSSASTIDGAATIDGTSNSNVVHAPALGQYIGSMSGRFEWRIKSMSLPSGVLTSADKYRMLGDGAVSLAVGGGTSSQVRLFTSDGTSRTVSLTNGNVRLSTSSTGYLQLGADAMTPDSTGTYALGSASRAWSGGFTQAAFTVTS” the “soluble on expression in E. coli” value was “soluble”. With “MGSSHHHHHHHSSGLVPRGSHMMRKRARIIYNPTSGKEQFKRELPDALIKLEKAGYETSAYATEKIGDATLEAERAMHENYDVLIAAGGDGTLNEVVNGIAEKPNRPKLGVIPMGTVNDFGRALHIPNDIMGALDVIIEGHSTKVDIGKMNNRYFINLAAGGQLTQVSYETPSKLKSIVGPFAYYIKGFEMLPQMKAVDLRIEYDGNVFQGEALLFFLGLTNSMAGFEKLVPDAKLDDGYFTLIIVEKSNLAELGHIMTLASRGEHTKHPKVIYEKAKAINISSFTDLQLNVDGEYGGKLPANFLNLERHIDVFAPNDIVNEELINNDHVDDNLIEE” the “soluble on expression in E. coli” value was “soluble”. For “MGSSHHHHHHSSGLVPRGSHMAKVNAFSKKIGWIEFITGPMFAGKTAELIRRLHRLEYADVKYLVFKPKIDTRSIRNIQSRTGTSLPSVEVESAPEILNYIMSNSFNDETKVIGIDEVQFFDDRICEVANILAENGFVVIISGLDKNFKGEPFGPIAKLFTYADKITKLTAICNECGAEATHSLRKIDGKHADYNDDIVKIGCQEFYSAVCRHHHKVPNRPYLNSNSEEFIKFFKNKKRNKNI”, the “soluble on expression in E. coli” value was “soluble”. With “MGSSHHHHHHSSGLVPRGSHMDTKIGLEVHFQLNTGKLFCRCPVEQSSGELMRFSRKLHISASELGNIDAAASYESMRSRSFQYVVTDNSCLVEMDEEPPKTPDERAIATAISVSKALNCDIVDHITYMRKIVIDGSNTTGFQRTAIVGINGHIETSKGPVRISTVCLEEDAARKIEEIGNTVVYSLDRLGIPLIEISTEPDIVDEDHAVEVARSIGYIVISTGNARHAVDAVRQDVNFSMGYGRVEIKGVSKLTQIRDVIRYEKERQENLRAAVDLIKSRGGLDRVSFNLKDVSDLFAGTKSKIIRSGIESGGVYAGILKNMAGTLKNGKLRMGKEIADLVRSYGIKGVMHSDELPGYGLTQDEVEALYRYLGKGDNDAVLLIAINQSRVKMIENSIFDRIQKIISMDLSETRGPAGEETVFLRPMPGKDRMYPETDIPVIKVDSKLMEMSSSIKPRTYAEVVQDLVDRYGISKQNAEYIASEMVVDAFRNIAEFVEAREAARILTQIVPDLERRTKKIIDHDRIIELCRRSKDLHFDRYQLEMALEILYERDDVASVLGDSRLKELSREEIKSIIREILSSGRNATQNSIIALIKEKTERVFDPRVAMECFNEVKNKNNVF” the “soluble on expression in E. coli” value was “soluble”. For “MGSSHHHHHHSSGLVPRGSHMKLYIIGAGPGDPDLITVKGLKLLQQADVVLYADSLVSQDLIAKSKPGAEVLKTAGMHLEEMVGTMLDRMREGKMVVRVHTGDPAMYGAIMEQMVLLKREGVDIEIVPGVTSVFAAAAAAEAELTIPDLTQTVILTRAEGRTPVPEFEKLTDLAKHKCTIALFLSSTLTKKVMKEFINAGWSEDTPVVVVYKATWPDEKIVRTTVKDLDDAMRTNGIRKQAMILAGWALDPATPWLSGLGENPAIRAMFVAHLHQALNMAVEEAA”, the “soluble on expression in E. coli” value was “soluble”. For “MGSSHHHHHHSSGLVPRGSHMNIGDTLNHSLLNHPLMLSGSTCKTLSDYTNQWLVLYFYPKDNTPGSSTEGLEFNLLLPQFEQINATVLGVSRDSVKSHDSFCAKQGFTFPLVSDSDAILCKAFDVIKEKTMYGRQVIGIERSTFLIGPTHRIVEAWRQVKVPGHAEEVLNKLKAHAEQ”, the “soluble on expression in E. coli” value was “soluble”. With “MGSSHHHHHHSSGLVPRGSHMSQDVPGNLLDEIRILRSPKGYLYAGLPKFRALFGRDSIISSIQLIDLFPDIAQNTVIYLKDLQGRKLDYSIGEYPGKILHEYYDDEKIFLDRKRSIPWLNSRINYFSVDSTPLFILLIKNLFLRNLIDIEQFKDSIMMAMQFLIAYSSSDGLITYDKALLGAGLMSQSWRDGVGDIMDRLKSPVATVGVQGYFYESADFVLNLFPDSLIEESLPDLKDFYSKMREILENKFWLEETGYYGLAVDGDGVIEQAATSDPGHLIGSGILTRSRERDVIDRLFESDLLTDYGIRTLSAKDPRFDPKAYQRGSIWPQDNWIIADGIKRRGYLKEYRELRERLIAAYEYYGRMPEYFGVDRYGKIMDLSKLRIKPCYPQAWSTGAIINFVTFK” the “soluble on expression in E. coli” value was “soluble”. With “MGSSHHHHHHSSGLVPRGSHMSSENIPLRVQFKRMKAAEWARSDVILLESEIGFETDTGFARAGDGHNRFSDLGYISPLDYNLLTNKPNIDGLATKVETAQKLQQKADKETVYTKAESKQELDKKLNLKGGVMTGQLKFKPAATVAYSSSTGGAVNIDLSSTRGAGVVVYSDNDTSDGPLMSLRTGKETFNQSALFVDYKGTTNAVNIAMRQPTTPNFSSALNITSGNENGSAMQLRGSEKALGTLKITHENPSIGADYDKNAAALSIDIVKKTNGAGTAAQGIYINSTSGTTGKLLRIRNLSDDKFYVKSDGGFYAKETSQIDGNLKLKDPTANDHAATKAYVDKAISELKKLILKK” the “soluble on expression in E. coli” value was “soluble”. In the case of “MGSSHHHHHHSSGLVPRGSHMSSTMSADQSNRARPVIRIKENPEDFTVEEVADIPKSDNGKYTIIKAEIIDWDTNRIVEEIASALRISRKRISYAGTKDKRARKIQYFCINAPVDVSVLAFKGFRIIDRFRSDHYLRLGDLTANHFRIRFQGASDDYIEQRYEKMMECGGFPNYFGQQRFGSRRRNTHDVGRLIVTGRYEDAVRLYLYDERYDIEDYRREFIETLDYNRALEKFPRTLRFERSIIGYYAQHHTFKGAFDALPKNLSIMFVHAYQSYLFNRMLSLRIEKYGLNRAIPGDTAFPVDRYFNPDKSRPVEVNEVNVDTINQLIERDRLRVALPIIGSEVGPDQSDFGEIEKKILEEEHVDRSMFRNSEYPHLSSTGDRRIVSAKPVDFSVSNSVMDFTLGRGIYATTLISTFGDLVDFDAESDGF”, the “soluble on expression in E. coli” value was “soluble”. In the case of “MGSSHHHHHHSSGRENLYFQGHMSANVQEAANAAIEPASFVKVPMPEPPSSLQQLINDWQLIKHREGGYFKETDRSPYTMEVEKPVNGGSGNTEMVTRNQSTLIYYLLTPDSPIGKFHKNINRIIHILQRGKGQYVLVYPDGQVKSFKVGFDYKNGEVSQWVVPGGVFKASFLLPNEEFDNGFLISEVVVPGFDFEDHTFLKGEDELKHLVGPEKAAELAFLA”, the “soluble on expression in E. coli” value was “soluble”.
